Data set [1] concerns T1, VEGF165 (vascular endothelial growth factor, 165 aa form) (Homo sapiens), P15692-4.
T1 sequence: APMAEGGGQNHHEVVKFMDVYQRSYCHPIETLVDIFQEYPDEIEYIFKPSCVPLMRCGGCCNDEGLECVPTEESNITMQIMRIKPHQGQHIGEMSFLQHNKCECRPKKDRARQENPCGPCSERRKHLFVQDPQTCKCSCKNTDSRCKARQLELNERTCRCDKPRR
As to the kind of experiment: filter. The following applies: 2'-NH2 at all C and U; 2'-OMe A5,A16,G13,G17,G20,G24-26,G28; PS 2'-deoxy T caps 1-4 and 29-33.

For data set [2] the test system is unchanged. As to the kind of experiment: competition. The following applies: 2'-NH2 at all C and U; 2'-OMe A5,A16,G13,G17,G20,G24-26,G28; PS 2'-deoxy T caps 1-4 and 29-33; 125I-VEGF receptor binding.

Regarding “TTTACCCUGAUGGUAGACGCCGGGGUGTTTTT [NX-214]”, the dissociation constant (Kd) (as a rule, a measure of binding affinity in units of concentration) in data set [1] turned out to be 0.2 nM. Also, the Ki (commonly the equilibrium dissociation constant of an inhibitor or competing ligand from its target) in data set [2] was 1 nM.

The values above are taken from patent US20030032785.
